Experimental data published in paper PMC12595022.

Target: 14-3-3γ (UniProt P61981)
Assay: co-immunoprecipitation, Western blot
Conditions: reference: full-length wild-type MDMX; sites S367

MDMX (from UniProt O15151) MDMX-S367A
binding against the reference: lost
